T1: C. elegans GluClβWT subunit (GLC-2) (C. elegans) (UniProt Q17328)
T1 sequence: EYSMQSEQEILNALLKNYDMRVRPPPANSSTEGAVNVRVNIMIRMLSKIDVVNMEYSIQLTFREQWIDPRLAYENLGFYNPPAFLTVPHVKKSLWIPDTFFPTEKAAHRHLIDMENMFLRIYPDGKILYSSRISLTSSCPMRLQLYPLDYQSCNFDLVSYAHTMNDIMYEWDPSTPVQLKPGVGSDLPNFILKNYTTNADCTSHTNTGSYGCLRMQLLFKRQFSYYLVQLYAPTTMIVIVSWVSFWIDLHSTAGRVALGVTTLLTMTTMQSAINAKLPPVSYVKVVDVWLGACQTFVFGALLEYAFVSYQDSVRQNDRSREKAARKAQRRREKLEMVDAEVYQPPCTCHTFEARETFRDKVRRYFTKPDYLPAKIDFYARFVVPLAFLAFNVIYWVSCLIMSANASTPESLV


Molecular target: T1, C. elegans GluClβWT subunit (GLC-2) (C. elegans)

Binder	whole-cell current amplitude in response to the Glu-EC50 concentration, CHO cells co-transfected with both subunits, +60 mV [nA]
C. elegans GluClα (GLC-1) subunit, P192E (receptor) QQARTKSQDIFEDDNDNGTTTLESLARLTSPIHIPIEQPQTSDSKILAHLFTSGYDFRVRPPTDNGGPVVVSVNMLLRTISKIDVVNMEYSAQLTLRESWIDKRLSYGVKGDGQPDFVILTVGHQIWMPDTFFPNEKQAYKHTIDKPNVLIRIHNDGTVLYSVRISLVLSCEMYLQYYPMDVQQCSIDLASYAYTTKDIEYLWKEHSPLQLKVGLSSSLPSFQLTNTSTTYCTSVTNTGIYSCLRTTIQLKREFSFYLLQLYIPSCMLVIVSWVSFWFDRTAIPARVTLGVTTLLTMTAQSAGINSQLPPVSYIKAIDVWIGACMTFIFCALLEFALVNHIANKQGVERKARTEREKAEIPLLQNLHNDVPTKVFNQEEKVRTVPLNRRQMNSFLNLLETKTEWNDISKRVDLISRALFPVLFFVFNILYWSRFGQQNVLF	3.1
C. elegans GluClα (GLC-1) subunit, F276W (receptor) QQARTKSQDIFEDDNDNGTTTLESLARLTSPIHIPIEQPQTSDSKILAHLFTSGYDFRVRPPTDNGGPVVVSVNMLLRTISKIDVVNMEYSAQLTLRESWIDKRLSYGVKGDGQPDFVILTVGHQIWMPDTFFPNEKQAYKHTIDKPNVLIRIHNDGTVLYSVRISLVLSCPMYLQYYPMDVQQCSIDLASYAYTTKDIEYLWKEHSPLQLKVGLSSSLPSFQLTNTSTTYCTSVTNTGIYSCLRTTIQLKREFSWYLLQLYIPSCMLVIVSWVSFWFDRTAIPARVTLGVTTLLTMTAQSAGINSQLPPVSYIKAIDVWIGACMTFIFCALLEFALVNHIANKQGVERKARTEREKAEIPLLQNLHNDVPTKVFNQEEKVRTVPLNRRQMNSFLNLLETKTEWNDISKRVDLISRALFPVLFFVFNILYWSRFGQQNVLF	3
C. elegans GluClα (GLC-1) subunit, F276A (receptor) QQARTKSQDIFEDDNDNGTTTLESLARLTSPIHIPIEQPQTSDSKILAHLFTSGYDFRVRPPTDNGGPVVVSVNMLLRTISKIDVVNMEYSAQLTLRESWIDKRLSYGVKGDGQPDFVILTVGHQIWMPDTFFPNEKQAYKHTIDKPNVLIRIHNDGTVLYSVRISLVLSCPMYLQYYPMDVQQCSIDLASYAYTTKDIEYLWKEHSPLQLKVGLSSSLPSFQLTNTSTTYCTSVTNTGIYSCLRTTIQLKREFSAYLLQLYIPSCMLVIVSWVSFWFDRTAIPARVTLGVTTLLTMTAQSAGINSQLPPVSYIKAIDVWIGACMTFIFCALLEFALVNHIANKQGVERKARTEREKAEIPLLQNLHNDVPTKVFNQEEKVRTVPLNRRQMNSFLNLLETKTEWNDISKRVDLISRALFPVLFFVFNILYWSRFGQQNVLF	3.1
C. elegans GluClα (GLC-1) subunit, E273R (receptor) QQARTKSQDIFEDDNDNGTTTLESLARLTSPIHIPIEQPQTSDSKILAHLFTSGYDFRVRPPTDNGGPVVVSVNMLLRTISKIDVVNMEYSAQLTLRESWIDKRLSYGVKGDGQPDFVILTVGHQIWMPDTFFPNEKQAYKHTIDKPNVLIRIHNDGTVLYSVRISLVLSCPMYLQYYPMDVQQCSIDLASYAYTTKDIEYLWKEHSPLQLKVGLSSSLPSFQLTNTSTTYCTSVTNTGIYSCLRTTIQLKRRFSFYLLQLYIPSCMLVIVSWVSFWFDRTAIPARVTLGVTTLLTMTAQSAGINSQLPPVSYIKAIDVWIGACMTFIFCALLEFALVNHIANKQGVERKARTEREKAEIPLLQNLHNDVPTKVFNQEEKVRTVPLNRRQMNSFLNLLETKTEWNDISKRVDLISRALFPVLFFVFNILYWSRFGQQNVLF	2.2

Now from value to binder:

whole-cell current amplitude in response to the Glu-EC50 concentration, CHO cells co-transfected with both subunits, +60 mV [nA]	Binder
5.9	C. elegans GluClα (GLC-1) subunit, Y194R (receptor) QQARTKSQDIFEDDNDNGTTTLESLARLTSPIHIPIEQPQTSDSKILAHLFTSGYDFRVRPPTDNGGPVVVSVNMLLRTISKIDVVNMEYSAQLTLRESWIDKRLSYGVKGDGQPDFVILTVGHQIWMPDTFFPNEKQAYKHTIDKPNVLIRIHNDGTVLYSVRISLVLSCPMRLQYYPMDVQQCSIDLASYAYTTKDIEYLWKEHSPLQLKVGLSSSLPSFQLTNTSTTYCTSVTNTGIYSCLRTTIQLKREFSFYLLQLYIPSCMLVIVSWVSFWFDRTAIPARVTLGVTTLLTMTAQSAGINSQLPPVSYIKAIDVWIGACMTFIFCALLEFALVNHIANKQGVERKARTEREKAEIPLLQNLHNDVPTKVFNQEEKVRTVPLNRRQMNSFLNLLETKTEWNDISKRVDLISRALFPVLFFVFNILYWSRFGQQNVLF
2.1	C. elegans GluClα (GLC-1) subunit, P192Y (receptor) QQARTKSQDIFEDDNDNGTTTLESLARLTSPIHIPIEQPQTSDSKILAHLFTSGYDFRVRPPTDNGGPVVVSVNMLLRTISKIDVVNMEYSAQLTLRESWIDKRLSYGVKGDGQPDFVILTVGHQIWMPDTFFPNEKQAYKHTIDKPNVLIRIHNDGTVLYSVRISLVLSCYMYLQYYPMDVQQCSIDLASYAYTTKDIEYLWKEHSPLQLKVGLSSSLPSFQLTNTSTTYCTSVTNTGIYSCLRTTIQLKREFSFYLLQLYIPSCMLVIVSWVSFWFDRTAIPARVTLGVTTLLTMTAQSAGINSQLPPVSYIKAIDVWIGACMTFIFCALLEFALVNHIANKQGVERKARTEREKAEIPLLQNLHNDVPTKVFNQEEKVRTVPLNRRQMNSFLNLLETKTEWNDISKRVDLISRALFPVLFFVFNILYWSRFGQQNVLF
3.2	C. elegans GluClα (GLC-1) subunit, P192M (receptor) QQARTKSQDIFEDDNDNGTTTLESLARLTSPIHIPIEQPQTSDSKILAHLFTSGYDFRVRPPTDNGGPVVVSVNMLLRTISKIDVVNMEYSAQLTLRESWIDKRLSYGVKGDGQPDFVILTVGHQIWMPDTFFPNEKQAYKHTIDKPNVLIRIHNDGTVLYSVRISLVLSCMMYLQYYPMDVQQCSIDLASYAYTTKDIEYLWKEHSPLQLKVGLSSSLPSFQLTNTSTTYCTSVTNTGIYSCLRTTIQLKREFSFYLLQLYIPSCMLVIVSWVSFWFDRTAIPARVTLGVTTLLTMTAQSAGINSQLPPVSYIKAIDVWIGACMTFIFCALLEFALVNHIANKQGVERKARTEREKAEIPLLQNLHNDVPTKVFNQEEKVRTVPLNRRQMNSFLNLLETKTEWNDISKRVDLISRALFPVLFFVFNILYWSRFGQQNVLF
2.9	C. elegans GluClα (GLC-1) subunit, SSS→GSD (positions 236–238) (receptor) QQARTKSQDIFEDDNDNGTTTLESLARLTSPIHIPIEQPQTSDSKILAHLFTSGYDFRVRPPTDNGGPVVVSVNMLLRTISKIDVVNMEYSAQLTLRESWIDKRLSYGVKGDGQPDFVILTVGHQIWMPDTFFPNEKQAYKHTIDKPNVLIRIHNDGTVLYSVRISLVLSCPMYLQYYPMDVQQCSIDLASYAYTTKDIEYLWKEHSPLQLKVGLGSDLPSFQLTNTSTTYCTSVTNTGIYSCLRTTIQLKREFSFYLLQLYIPSCMLVIVSWVSFWFDRTAIPARVTLGVTTLLTMTAQSAGINSQLPPVSYIKAIDVWIGACMTFIFCALLEFALVNHIANKQGVERKARTEREKAEIPLLQNLHNDVPTKVFNQEEKVRTVPLNRRQMNSFLNLLETKTEWNDISKRVDLISRALFPVLFFVFNILYWSRFGQQNVLF
